From paper PMC6444592, “Citrullination of HP1γ chromodomain affects association with chromatin” (Epigenetics & Chromatin, 2019) come the findings set out here.

The test has as its target H3K9me3(1–16) peptide.

Turning to “GST-HP1γWT (recombinant full-length mouse heterochromatin protein 1 gamma, wild type) (from UniProt P23198 1-183) (natural protein)”, the HP1γ citrullination by PADI4 in the in vitro citrullination assay with added H3K9me3 peptides (immunoblot with anti-peptidyl-citrulline antibody; fold change against unmethylated H3 peptide) was determined as 2 fold.
